Key:
[1] = target: the molecule itself; test: crystal structure; hanging drop vapour diffusion, 10 mg/ml protein with 5 mM of each ligand, PEG 3350, sodium cacodylate pH 6, 50 mM MgCl2, 100 mM KCl; 18°C (C424A, with F-1,6-BP, oxalate and ATP) or 4°C (C358S)
[2] = target: the molecule itself; test: cell-based or functional assay
[3] = target: the molecule itself; test: SEC; analytical gel filtration, Superdex 200 PC 3.2/30 in PBS-CM, room temperature; 0.1 mg/ml incubated 12 h (equilibrium) without or with 1 mM DTT or 20 μM H2O2; tetramer to monomers, peak areas on a bimodal distribution

B1: M2PYK C424A (enzyme)
chain: not shown
notes: pyruvate kinase, M2 isoform (M2PYK), human, point mutant made on pET28a-M2PYK; Made by QuikChange on pET28a-M2PYK; no step that removes the His tag is described; source: E. coli BL21, purified (cobalt IMAC, Superdex 200 gel filtration)
B1: binds [1].

B2: M2PYK C326S (enzyme)
chain: not shown
In the case of B2, the “enzymatic activity, LDH-coupled assay, without F-1,6-BP, relative to M2PYK WT” value [2] is reported as ~20 % of WT activity.

B3: M2PYK C358S (enzyme)
chain: not shown
notes: pyruvate kinase, M2 isoform (M2PYK), human, point mutant made on pET28a-M2PYK; Made by QuikChange on pET28a-M2PYK; no step that removes the His tag is described; also called Cys358Ser; MPYK C358S; source: E. coli BL21, purified (cobalt IMAC, Superdex 200 gel filtration)
For B3, the “stoichiometry N” value [3] was 4.

Reference: paper PMC6208296, “Redox regulation of pyruvate kinase M2 by cysteine oxidation and S-nitrosation” (Biochemical Journal, 2018)
